Columns and labels:
[1] = tested on: hPSC derived oligodendrocytes co-cultured with rodent dorsal root ganglia neurons (MBP+ cells); experiment: Co-culture myelination assay (human oligodendrocytes with DRG neurons), MBP staining; assay type: cell-based; conditions: 14 days co-culture; Noggin 50 ng/ml; LDN-193189 125 nM
Procedure: ArrayScan VTI HCS reader system (Cellomis, Thermo-scientific) was used for scanning at least 20 fields for each tested well under 10× objective in both assays (differentiation and myelination). Cellomics Neural profiling bio-application was used for processing and analyzing the images. For differentiation assay, the following parameters were tested: number and percentage of O4+ cells, number of processes, processes length and number of branching points. For myelination assay, the same morphological parameters were tested and in addition: areas of myelinated axons in pixels (MBP&NF overlap area) and Number of myelinated regions (MBP&NF overlap count) were also analyzed. Modifications in the Neuro-profiling bio-application were conducted for this specific purpose. T-test analysis was used to compare between treatments. The 4-parameter Hill-Slope curve fittings were generated by GraphPad Prism software using least squares fitting method and EC50 values were calculated. […]
For testing maturation and myelination capacity of the hPSC derived oligodendrocytes, a co-culture system between rodent dorsal root ganglia (DRGs) and hPSCs derived oligodendrocytes was used. The number of MBP+ cells (MBP, a marker of oligodendrocytes' myelin) and Myelin formation (measured by co-localization area between MBP and neurofilament positive neuronal axons) was quantified.

[2] = tested on: glial progenitor cells derived from human ES cells (Olig2 positive cells); experiment: hOPC differentiation assay, Olig2 positive cells (immunostaining, high content screening); assay type: cell-based; conditions: days 21, 28, 35, 42; noggin 100 ng/ml; LDN-193189 62.5 nM and 125 nM
Procedure: In order to initiate differentiation 20,000 GPCs were seeded in each well of Matrigel coated plates of 96 wells, or on PolyD-Lysine/laminin (PDL/lam)-coated 96 well plates. Cells were grown in GM media for two to three days. Then GM was replaced by differentiation medium without growth factors, (DMEM/F12, 1% B27, 0.5% N2, Vitamin C (Sigma, 50 ug/ml). Differentiation medium was supplemented with the following tested compounds: […] All media were replaced every other day. The oligodendrocyte lineage cells were characterized by the expression of a transcription factor olig2. The rabbit polyclonal AB anti olig2 (Millipore cat AB9610) was added to PFA fixed cells. […] ArrayScan VTI HCS reader system (Cellomis, Thermo-scientific) was used for scanning at least 20 fields for each tested well under 10× objective in both assays (differentiation and myelination). […] For myelination assay, the same morphological parameters were tested and in addition: areas of myelinated axons in pixels (MBP&NF overlap area) and Number of myelinated regions (MBP&NF overlap count) were also analyzed. […] The 4-parameter Hill-Slope curve fittings were generated by GraphPad Prism software using least squares fitting method and EC50 values were calculated. […] Time points used for analysis are 21, 28, 35 and 42 days of differentiation, for each time point 20 fields were analyzed. […]

B1: Noggin: the inhibitor of BMP signaling noggin (R&D) (protein, UniProt Q13253 28-232, looked up)
Noggin: QHYLHIRPAPSDNLPLVDLIEHPDPIFDPKEKDLNETLLRSLLGGHYDPGFMATSPPEDRPGGGGGAAGGAEDLAELDQLLRQRPSGAMPSEIKGLEFSEGLAQGKKQRLSKKLRRKLQMWLWSQTFCPVLYAWNDLGSRFWPRYVKVGSCFSKRSCSVPEGMVCKPSKSVHLTVLRWRCQRRGGQRCGWIPIQYPIISECKCSC
- Myelin fibers [1]: Myelin fibers are observed
- conversion of neural stem cells to Olig2 positive cells [2]: stimulate the conversion of neural stem cells to Olig2 positive cells
